Read-outs that look alike come from different tables or passages of the source. Values belong to the substance of their own block, whether it stands above or below them.
Assays:
FtsY (Escherichia coli) = FtsY (Escherichia coli) (UniProt P10121); conditions: cited from earlier work
[1] = target: cpSRP54 (chloroplast SRP54), wildtype (Arabidopsis thaliana) (UniProt P37107); assay: GTPase inhibition assay
[2] = target: cpSRP54 (chloroplast SRP54), wildtype (Arabidopsis thaliana) (UniProt P37107); assay: GTPase inhibition assay; remark: listed apart in the source
[3] = target: cpSRP54 (chloroplast SRP54), wildtype (Arabidopsis thaliana) (UniProt P37107)
[4] = target: cpFtsY(A168W) labeled for FRET; assay: FRET or BRET
cpFtsY(321C)-DACM = cpFtsY(321C)-DACM (UniProt O80842); assay: FRET or BRET
[5] = target: cpFtsY (chloroplast SRP receptor), wildtype (UniProt O80842); assay: GTPase inhibition assay
[6] = target: cpFtsY (chloroplast SRP receptor), wildtype (UniProt O80842)
[7] = target: cpFtsY (chloroplast SRP receptor), wildtype (UniProt O80842); assay: GTPase inhibition assay; remark: listed apart in the source

cpSRP54 (chloroplast SRP54), wildtype (Arabidopsis thaliana), sequence (P37107 76-564): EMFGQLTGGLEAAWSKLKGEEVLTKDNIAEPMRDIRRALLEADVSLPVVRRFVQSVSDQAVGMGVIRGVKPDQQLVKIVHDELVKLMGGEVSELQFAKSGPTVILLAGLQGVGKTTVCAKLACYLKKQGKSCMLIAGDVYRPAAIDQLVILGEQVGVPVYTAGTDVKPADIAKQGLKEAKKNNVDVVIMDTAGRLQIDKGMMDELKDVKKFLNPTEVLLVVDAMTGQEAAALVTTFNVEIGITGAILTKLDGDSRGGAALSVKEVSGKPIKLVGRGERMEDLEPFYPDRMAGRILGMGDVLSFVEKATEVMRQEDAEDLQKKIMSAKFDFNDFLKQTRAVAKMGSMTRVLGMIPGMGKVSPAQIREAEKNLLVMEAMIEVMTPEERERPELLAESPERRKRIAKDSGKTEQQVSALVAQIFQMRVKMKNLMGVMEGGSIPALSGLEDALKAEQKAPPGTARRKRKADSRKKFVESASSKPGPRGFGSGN
Ffh, sequence (P0AGD7 whole entry): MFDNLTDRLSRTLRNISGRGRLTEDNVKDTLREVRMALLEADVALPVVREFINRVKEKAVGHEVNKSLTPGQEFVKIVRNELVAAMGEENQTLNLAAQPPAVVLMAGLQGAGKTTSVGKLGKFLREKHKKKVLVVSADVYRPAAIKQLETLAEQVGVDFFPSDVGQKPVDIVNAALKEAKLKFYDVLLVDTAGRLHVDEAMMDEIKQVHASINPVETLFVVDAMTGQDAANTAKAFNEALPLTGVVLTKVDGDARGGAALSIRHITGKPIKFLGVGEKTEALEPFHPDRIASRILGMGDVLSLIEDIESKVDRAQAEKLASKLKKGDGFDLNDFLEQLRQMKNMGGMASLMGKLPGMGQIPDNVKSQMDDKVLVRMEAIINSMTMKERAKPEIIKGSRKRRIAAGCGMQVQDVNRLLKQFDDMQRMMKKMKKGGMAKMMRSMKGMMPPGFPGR
FtsY (Escherichia coli), sequence (P10121 2-497): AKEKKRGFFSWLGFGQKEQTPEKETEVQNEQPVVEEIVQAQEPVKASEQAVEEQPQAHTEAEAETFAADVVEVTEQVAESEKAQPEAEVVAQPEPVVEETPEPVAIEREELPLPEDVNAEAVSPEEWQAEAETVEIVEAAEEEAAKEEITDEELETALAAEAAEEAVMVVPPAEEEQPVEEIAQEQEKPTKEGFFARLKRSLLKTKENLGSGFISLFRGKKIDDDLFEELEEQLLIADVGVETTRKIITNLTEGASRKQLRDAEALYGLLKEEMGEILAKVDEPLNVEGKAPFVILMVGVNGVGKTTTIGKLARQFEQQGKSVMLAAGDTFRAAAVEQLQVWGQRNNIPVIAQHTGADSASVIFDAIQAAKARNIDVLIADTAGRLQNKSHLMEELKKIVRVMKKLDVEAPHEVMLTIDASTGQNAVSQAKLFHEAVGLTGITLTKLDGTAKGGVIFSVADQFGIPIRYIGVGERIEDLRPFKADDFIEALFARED

Substance: Ffh (from UniProt P0AGD7)
Kd (FtsY (Escherichia coli)): 6 µM

Substance: cpFtsY(F165A) (natural protein)
kcat/Km of the reciprocally stimulated GTPase reaction [3]: 38 µM⁻¹ min⁻¹

Substance: cpFtsY(R166A) (natural protein)
Ki [1]: 3200 nM
kcat/Km of the reciprocally stimulated GTPase reaction [3]: 0.89 µM⁻¹ min⁻¹

Substance: cpSRP54(A142W) (natural protein)
Ki [5]: 110 nM
Km of the reciprocally stimulated GTPase reaction [6]: 0.24 µM
kcat/Km of the reciprocally stimulated GTPase reaction [6]: 2.8 µM⁻¹ min⁻¹
Ki [7]: < 200 nM

Substance: cpSRP54(D137A) (natural protein)
Ki [5]: 2000 nM
kcat/Km of the reciprocally stimulated GTPase reaction [6]: 0.19 µM⁻¹ min⁻¹

Further lines, results first:

Ki [1]: 230 nM
Ki [2]: < 200 nM
Substance: cpFtsY(A168W) (natural protein)

Kd [4]: 350 nM
Kd (cpFtsY(321C)-DACM): 7 µM
kon (cpFtsY(321C)-DACM): 500000 M⁻¹ s⁻¹
Substance: cpSRP54(234C)-BODIPY-FL (from UniProt P37107 76-564) (natural protein)

Ki [5]: 510 nM
kcat/Km of the reciprocally stimulated GTPase reaction [6]: 0.54 µM⁻¹ min⁻¹
Substance: cpSRP54(R140A) (natural protein)
